These are literature values, as cited in publication PMC6684861 (Traffic (Copenhagen, Denmark), 2018).

The data set deals with mouse embryonic fibroblasts. The conditions noted are these: ref unpublished observations.

B1: DNA polymerase λ (protein, UniProt Q9UGP5 1-575, looked up)
DNA polymerase lambda: MDPRGILKAFPKRQKIHADASSKVLAKIPRREEGEEAEEWLSSLRAHVVRTGIGRARAELFEKQIVQHGGQLCPAQGPGVTHIVVDEGMDYERALRLLRLPQLPPGAQLVKSAWLSLCLQERRLVDVAGFSIFIPSRYLDHPQPSKAEQDASIPPGTHEALLQTALSPPPPPTRPVSPPQKAKEAPNTQAQPISDDEASDGEETQVSAADLEALISGHYPTSLEGDCEPSPAPAVLDKWVCAQPSSQKATNHNLHITEKLEVLAKAYSVQGDKWRALGYAKAINALKSFHKPVTSYQEACSIPGIGKRMAEKIIEILESGHLRKLDHISESVPVLELFSNIWGAGTKTAQMWYQQGFRSLEDIRSQASLTTQQAIGLKHYSDFLERMPREEATEIEQTVQKAAQAFNSGLLCVACGSYRRGKATCGDVDVLITHPDGRSHRGIFSRLLDSLRQEGFLTDDLVSQEENGQQQKYLGVCRLPGPGRRHRRLDIIVVPYSEFACALLYFTGSAHFNRSMRALAKTKGMSLSEHALSTAVVRNTHGCKVGPGRVLPTPTEKDVFRLLGLPYREPAERDW
As to B1, the “nuclear/cytosolic ratio in mouse embryonic fibroblasts” value is listed as 8.
